In the Human Domainome abundance scans (Beltran et al. 2025):
± gives the uncertainty stated by the source.

B1: Integrator complex subunit 12, residues 155 to 213; numbered along this chain, Q96CB8 (parent)
chain: AMEMGLACVVCRQMMVASGNQLVECQECHNLYHRDCHKPQVTDKEANDPRLVWYCARCT
B2: RUN and FYVE domain-containing protein 1, residues 639 to 698; numbered along this chain, Q96T51 (parent)
chain: WLKDDEATHCRQCEKEFSISRRKHHCRNCGHIFCNTCSSNELALPSYPKPVRVCDSCHTL

Variants of: B1
Experiment: abundance fitness (aPCA) (normalised: wild type 0, dead -1); higher = more abundant; growth selection in yeast, the domain comes from the species named
Settings: Homo sapiens

Q: For AMEMGLACVVCRQMMVASGNQLVECQECHNLYHRDCHKPQVTDKEANDPRLVWYCAMCT [R57M], which abundance fitness is on record?
A: The abundance fitness was -0.134 ± 0.046.

Q: Which abundance fitness does the source give for AMEMGLACVVCRQMMVASGNQLVECQECHNLYHRDCHKPQVTDKEANDPRLVWYCATCT [R57T] here?
A: Its abundance fitness is 0.057 ± 0.056.

Q: With AMEMGLACVVCRQMMVASGNQLVECQECHNLYHRDCHKPQVTDKEANDPRLVWYCAPCT [R57P] as the variant, how does the abundance fitness read?
A: Its abundance fitness is -0.013 ± 0.048.

Q: Which abundance fitness does the source give for AMEMGLACVVCRQMMVASGNQLVECQECHNLYHRDCHKPQVTDKEANDPRLVWYCAKCT [R57K] here?
A: Its abundance fitness is -0.029 ± 0.047.

Q: For AMEMGLACVVCRQMMVASGNQLVECQECHNLYHRDCHKPQVTDKEANDPRLVWYCAQCT [R57Q], which abundance fitness is on record?
A: Its abundance fitness is -0.034 ± 0.051.

Q: With AMEMGLACVVCRQMMVASGNQLVECQECHNLYHRDCHKPQVTDKEANDPRLVWYCALCT [R57L] as the variant, how does the abundance fitness read?
A: The abundance fitness was -0.122 ± 0.042.

Q: With AMEMGLACVVCRQMMVASGNQLVECQECHNLYHRDCHKPQVTDKEANDPRLVWYCAVCT [R57V] as the variant, how does the abundance fitness read?
A: Its abundance fitness is -0.074 ± 0.038.

Q: For AMEMGLACVVCRQMMVASGNQLVECQECHNLYHRDCHKPQVTDKEANDPRLVWYCASCT [R57S], which abundance fitness is on record?
A: The abundance fitness was -0.026 ± 0.043.

Q: For AMEMGLACVVCRQMMVASGNQLVECQECHNLYHRDCHKPQVTDKEANDPRLVWYCARCF [T59F], which abundance fitness is on record?
A: The abundance fitness was -0.254 ± 0.14.

Q: For AMEMGLACVVCRQMMVASGNQLVECQECHNLYHRDCHKPQVTDKEANDPRLVWYCARCI [T59I], which abundance fitness is on record?
A: Its abundance fitness is -0.103 ± 0.089.

Q: For AMEMGLACVVCRQMMVASGNQLVECQECHNLYHRDCHKPQVTDKEANDPRLVWYCARCL [T59L], which abundance fitness is on record?
A: The abundance fitness was -0.249 ± 0.068.

Q: Which abundance fitness does the source give for AMEMGLACVVCRQMMVASGNQLVECQECHNLYHRDCHKPQVTDKEANDPRLVWYCARCP [T59P] here?
A: Its abundance fitness is -0.142 ± 0.083.

Q: For AMEMGLACVVCRQMMVASGNQLVECQECHNLYHRDCHKPQVTDKEANDPRLVWYCARCW [T59W], which abundance fitness is on record?
A: The abundance fitness was -0.387 ± 0.12.

Q: For AMEMGLACVVCRQMMVASGNQLVECQECHNLYHRDCHKPQVTDKEANDPRLVWYCARCN [T59N], which abundance fitness is on record?
A: The abundance fitness was -0.205 ± 0.16.

Q: For AMEMGLACVVCRQMMVASGNQLVECQECHNLYHRDCHKPQVTDKEANDPRLVWYCARCG [T59G], which abundance fitness is on record?
A: The abundance fitness was -0.13 ± 0.082.

Q: For AMEMGLACVVCRQMMVASGNQLVECQECHNLYHRDCHKPQVTDKEANDPRLVWYCARCC [T59C], which abundance fitness is on record?
A: The abundance fitness was -0.25 ± 0.18.

Q: Which abundance fitness does the source give for AMEMGLACVVCRQMMVASGNQLVECQECHNLYHRDCHKPQVTDKEANDPRLVWYCARCY [T59Y] here?
A: Its abundance fitness is -0.218 ± 0.21.

Q: With AMEMGLACVVCRQMMVASGNQLVECQECHNLYHRDCHKPQVTDKEANDPRLVWYCARCS [T59S] as the variant, how does the abundance fitness read?
A: The abundance fitness was 0.045 ± 0.064.

Q: For AMEMGLACVVCRQMMVASGNQLVECQECHNLYHRDCHKPQVTDKEANDPRLVWYCARCM [T59M], which abundance fitness is on record?
A: Its abundance fitness is -0.237 ± 0.13.

Q: With AMEMGLACVVCRQMMVASGNQLVECQECHNLYHRDCHKPQVTDKEANDPRLVWYCARCA [T59A] as the variant, how does the abundance fitness read?
A: The abundance fitness was 0.016 ± 0.074.

Q: For AMEMGLACVVCRQMMVASGNQLVECQECHNLYHRDCHKPQVTDKEANDPRLVWYCARCD [T59D], which abundance fitness is on record?
A: The abundance fitness was -0.072 ± 0.17.

Q: Which abundance fitness does the source give for AMEMGLACVVCRQMMVASGNQLVECQECHNLYHRDCHKPQVTDKEANDPRLVWYCARCH [T59H] here?
A: Its abundance fitness is 0.035 ± 0.077.

Q: For AMEMGLACVVCRQMMVASGNQLVECQECHNLYHRDCHKPQVTDKEANDPRLVWYCARCE [T59E], which abundance fitness is on record?
A: The abundance fitness was 0.098 ± 0.14.

Q: With AMEMGLACVVCRQMMVASGNQLVECQECHNLYHRDCHKPQVTDKEANDPRLVWYCARCV [T59V] as the variant, how does the abundance fitness read?
A: Its abundance fitness is -0.227 ± 0.12.

Q: With AMEMGLACVVCRQMMVASGNQLVECQECHNLYHRDCHKPQVTDKEANDPRLVWYCARCR [T59R] as the variant, how does the abundance fitness read?
A: The abundance fitness was -0.002 ± 0.055.

Q: Which abundance fitness does the source give for AMEMGLACVVCRQMMVASGNQLVECQECHNLYHRDCHKPQVTDKEANDPRLVWYCARMT [C58M] here?
A: The abundance fitness was -1.09 ± 0.13.

Q: With AMEMGLACVVCRQMMVASGNQLVECQECHNLYHRDCHKPQVTDKEANDPRLVWYCARRT [C58R] as the variant, how does the abundance fitness read?
A: The abundance fitness was -0.929 ± 0.061.

Q: With AMEMGLACVVCRQMMVASGNQLVECQECHNLYHRDCHKPQVTDKEANDPRLVWYCARDT [C58D] as the variant, how does the abundance fitness read?
A: The abundance fitness was -0.8 ± 0.093.

Q: For AMEMGLACVVCRQMMVASGNQLVECQECHNLYHRDCHKPQVTDKEANDPRLVWYCARVT [C58V], which abundance fitness is on record?
A: The abundance fitness was -1.04 ± 0.091.

Q: With AMEMGLACVVCRQMMVASGNQLVECQECHNLYHRDCHKPQVTDKEANDPRLVWYCARFT [C58F] as the variant, how does the abundance fitness read?
A: The abundance fitness was -1.11 ± 0.18.

Q: With AMEMGLACVVCRQMMVASGNQLVECQECHNLYHRDCHKPQVTDKEANDPRLVWYCARET [C58E] as the variant, how does the abundance fitness read?
A: Its abundance fitness is -0.906 ± 0.099.

Q: For AMEMGLACVVCRQMMVASGNQLVECQECHNLYHRDCHKPQVTDKEANDPRLVWYCARTT [C58T], which abundance fitness is on record?
A: The abundance fitness was -0.918 ± 0.085.

Q: For AMEMGLACVVCRQMMVASGNQLVECQECHNLYHRDCHKPQVTDKEANDPRLVWYCARAT [C58A], which abundance fitness is on record?
A: Its abundance fitness is -0.869 ± 0.07.

Q: Which abundance fitness does the source give for AMEMGLACVVCRQMMVASGNQLVECQECHNLYHRDCHKPQVTDKEANDPRLVWYCARYT [C58Y] here?
A: Its abundance fitness is -1.08 ± 0.12.

Q: With AMEMGLACVVCRQMMVASGNQLVECQECHNLYHRDCHKPQVTDKEANDPRLVWYCARHT [C58H] as the variant, how does the abundance fitness read?
A: The abundance fitness was -0.287 ± 0.075.

Q: With AMEMGLACVVCRQMMVASGNQLVECQECHNLYHRDCHKPQVTDKEANDPRLVWYCARGT [C58G] as the variant, how does the abundance fitness read?
A: Its abundance fitness is -0.851 ± 0.059.

Q: Which abundance fitness does the source give for AMEMGLACVVCRQMMVASGNQLVECQECHNLYHRDCHKPQVTDKEANDPRLVWYCARNT [C58N] here?
A: Its abundance fitness is -1.05 ± 0.18.

Q: With AMEMGLACVVCRQMMVASGNQLVECQECHNLYHRDCHKPQVTDKEANDPRLVWYCARIT [C58I] as the variant, how does the abundance fitness read?
A: Its abundance fitness is -1.39 ± 0.24.

Q: Which abundance fitness does the source give for AMEMGLACVVCRQMMVASGNQLVECQECHNLYHRDCHKPQVTDKEANDPRLVWYCARWT [C58W] here?
A: The abundance fitness was -1.26 ± 0.12.

Q: With AMEMGLACVVCRQMMVASGNQLVECQECHNLYHRDCHKPQVTDKEANDPRLVWYCARST [C58S] as the variant, how does the abundance fitness read?
A: Its abundance fitness is -1.1 ± 0.074.

Q: For AMEMGLACVVCRQMMVASGNQLVECQECHNLYHRDCHKPQVTDKEANDPRLVWYCARPT [C58P], which abundance fitness is on record?
A: Its abundance fitness is -0.762 ± 0.13.

Variants of: B2
Experiment: as above
Settings: Homo sapiens

Q: Which abundance fitness does the source give for LLKDDEATHCRQCEKEFSISRRKHHCRNCGHIFCNTCSSNELALPSYPKPVRVCDSCHTL [W1L] here?
A: Its abundance fitness is -0.05 ± 0.064.

Q: For MLKDDEATHCRQCEKEFSISRRKHHCRNCGHIFCNTCSSNELALPSYPKPVRVCDSCHTL [W1M], which abundance fitness is on record?
A: The abundance fitness was 0.253 ± 0.057.

Q: Which abundance fitness does the source give for FLKDDEATHCRQCEKEFSISRRKHHCRNCGHIFCNTCSSNELALPSYPKPVRVCDSCHTL [W1F] here?
A: The abundance fitness was -0.106 ± 0.14.
